For this test, the target named is T1, His6-K10^C401A-2B (human keratin 10 helix 2B domain with C401A, His6 tag kept) (human, UniProt P13645 337-456, C401A).
T1 sequence (looked up): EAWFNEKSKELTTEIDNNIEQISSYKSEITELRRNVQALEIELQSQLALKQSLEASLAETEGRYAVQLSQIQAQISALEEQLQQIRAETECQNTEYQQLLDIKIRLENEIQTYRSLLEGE
The experiment in a line: pull-down.

The term stoichiometry N denotes the number of molecules, sites or subunits per partner or assembly.

B1: human keratin 1 helix 2B domain (K1-2B) (domain or fragment, UniProt P04264 370-489, looked up)
chain: ESLYQSKYEELQITAGRHGDSVRNSKIEISELNRVIQRLRSEIDNVKKQISNLQQSISDAEQRGENALKDAKNKLNDLEDALQQAKEDLARLLRDYQELMNTKLALDLEIATYRTLLEGE
Take B1: the “stoichiometry N” value turned out to be 1.

The values above are taken from PMC7087056 (The Yale Journal of Biology and Medicine, 2020).
